The sequences below were run on Escherichia coli TOP10 (assay: shrunken log2 fold change of peptide-encoding DNA abundance (4.5 h post-induction vs induction); higher = less antimicrobial activity (less host growth inhibition)). Conditions: time post-induction: 4.5 h; library: site-saturation at positions 5, 18, 19, 20.
RRIRDRPPRLPRPRPRPGGVPRP was tested, and the “shrunken log2 fold change” value was 0.434.
With RRIRARPPRLPRPRPRPHKGPRP the “shrunken log2 fold change” value was 0.187.
In the case of RRIRTRPPRLPRPRPRPYPPPRP, the “shrunken log2 fold change” value is reported as -0.203.
In the case of RRIRSRPPRLPRPRPRPTSIPRP, the “shrunken log2 fold change” value is reported as -0.102.
In the case of RRIRGRPPRLPRPRPRPRYYPRP, the “shrunken log2 fold change” value is reported as -0.0701.
With RRIRERPPRLPRPRPRPRNQPRP the “shrunken log2 fold change” value was -0.312.
In the case of RRIRGRPPRLPRPRPRPTQMPRP, the “shrunken log2 fold change” value is reported as 0.924.
With RRIRSRPPRLPRPRPRPYKMPRP the “shrunken log2 fold change” value was -0.425.
For RRIRDRPPRLPRPRPRPQREPRP, the “shrunken log2 fold change” value was -0.0375.
RRIRLRPPRLPRPRPRPMKEPRP was tested, and the “shrunken log2 fold change” value was -0.019.
With RRIRRRPPRLPRPRPRPQRLPRP the “shrunken log2 fold change” value was 0.124.
In the case of RRIRCRPPRLPRPRPRPQYFPRP, the “shrunken log2 fold change” value is reported as -0.252.
RRIRLRPPRLPRPRPRPGSKPRP was tested, and the “shrunken log2 fold change” value was -0.559.
RRIRARPPRLPRPRPRPPDWPRP was tested, and the “shrunken log2 fold change” value was 1.23.
In the case of RRIRFRPPRLPRPRPRPMKSPRP, the “shrunken log2 fold change” value is reported as -0.198.
With RRIRVRPPRLPRPRPRPLMTPRP the “shrunken log2 fold change” value was -0.24.
With RRIRHRPPRLPRPRPRPDIKPRP the “shrunken log2 fold change” value was -0.559.
With RRIRKRPPRLPRPRPRPKIMPRP the “shrunken log2 fold change” value was 0.193.
RRIRTRPPRLPRPRPRPGTNPRP was tested, and the “shrunken log2 fold change” value was -0.0901.
In the case of RRIRTRPPRLPRPRPRPHQRPRP, the “shrunken log2 fold change” value is reported as -0.0533.
In the case of RRIRTRPPRLPRPRPRPMYYPRP, the “shrunken log2 fold change” value is reported as 0.0219.
In the case of RRIRIRPPRLPRPRPRPFMEPRP, the “shrunken log2 fold change” value is reported as -0.354.
For RRIRSRPPRLPRPRPRPKVNPRP, the “shrunken log2 fold change” value was -0.333.
For RRIRIRPPRLPRPRPRPGNWPRP, the “shrunken log2 fold change” value was -0.35.
RRIRPRPPRLPRPRPRPWYWPRP was tested, and the “shrunken log2 fold change” value was -0.161.
For RRIRHRPPRLPRPRPRPVDKPRP, the “shrunken log2 fold change” value was -0.308.
RRIRKRPPRLPRPRPRPNMVPRP was tested, and the “shrunken log2 fold change” value was 0.114.
RRIRMRPPRLPRPRPRPGTQPRP was tested, and the “shrunken log2 fold change” value was 0.407.
With RRIRWRPPRLPRPRPRPIICPRP the “shrunken log2 fold change” value was -0.523.
For RRIRHRPPRLPRPRPRPRCKPRP, the “shrunken log2 fold change” value was -0.053.
For RRIRYRPPRLPRPRPRPDDFPRP, the “shrunken log2 fold change” value was -0.0153.
With RRIRPRPPRLPRPRPRPMAFPRP the “shrunken log2 fold change” value was 0.0207.
For RRIRQRPPRLPRPRPRPANYPRP, the “shrunken log2 fold change” value was -0.0497.
For RRIRNRPPRLPRPRPRPYGGPRP, the “shrunken log2 fold change” value was -0.0102.
In the case of RRIRYRPPRLPRPRPRPKTTPRP, the “shrunken log2 fold change” value is reported as -0.0197.
For RRIRRRPPRLPRPRPRPEVCPRP, the “shrunken log2 fold change” value was 0.793.
RRIRRRPPRLPRPRPRPISEPRP was tested, and the “shrunken log2 fold change” value was 0.00118.
With RRIRWRPPRLPRPRPRPRPYPRP the “shrunken log2 fold change” value was 0.0357.
RRIRARPPRLPRPRPRPYVNPRP was tested, and the “shrunken log2 fold change” value was -0.235.
In the case of RRIRKRPPRLPRPRPRPYYPPRP, the “shrunken log2 fold change” value is reported as -0.227.
RRIRWRPPRLPRPRPRPRRHPRP was tested, and the “shrunken log2 fold change” value was 0.559.
RRIRERPPRLPRPRPRPVDHPRP was tested, and the “shrunken log2 fold change” value was -0.195.
In the case of RRIRDRPPRLPRPRPRPDQPPRP, the “shrunken log2 fold change” value is reported as -0.00151.
In the case of RRIRARPPRLPRPRPRPPAVPRP, the “shrunken log2 fold change” value is reported as 0.927.
With RRIRLRPPRLPRPRPRPPYYPRP the “shrunken log2 fold change” value was -0.292.
RRIRKRPPRLPRPRPRPISMPRP was tested, and the “shrunken log2 fold change” value was -0.00992.
For RRIRIRPPRLPRPRPRPPFHPRP, the “shrunken log2 fold change” value was -0.513.
For RRIRTRPPRLPRPRPRPMAPPRP, the “shrunken log2 fold change” value was 0.294.
With RRIRLRPPRLPRPRPRPKLNPRP the “shrunken log2 fold change” value was -0.182.
RRIRERPPRLPRPRPRPYFIPRP was tested, and the “shrunken log2 fold change” value was -1.17.
With RRIRCRPPRLPRPRPRPREEPRP the “shrunken log2 fold change” value was 1.43.
With RRIRHRPPRLPRPRPRPSADPRP the “shrunken log2 fold change” value was -0.428.
RRIRYRPPRLPRPRPRPFPEPRP was tested, and the “shrunken log2 fold change” value was -0.423.
RRIRQRPPRLPRPRPRPLETPRP was tested, and the “shrunken log2 fold change” value was 0.181.
In the case of RRIRKRPPRLPRPRPRPAVTPRP, the “shrunken log2 fold change” value is reported as 0.0318.
For RRIRDRPPRLPRPRPRPAFTPRP, the “shrunken log2 fold change” value was -0.155.
RRIRQRPPRLPRPRPRPHAEPRP was tested, and the “shrunken log2 fold change” value was -0.0176.
In the case of RRIRQRPPRLPRPRPRPWFYPRP, the “shrunken log2 fold change” value is reported as -0.373.
In the case of RRIRIRPPRLPRPRPRPHAVPRP, the “shrunken log2 fold change” value is reported as -0.12.
With RRIRDRPPRLPRPRPRPHDYPRP the “shrunken log2 fold change” value was -0.0787.

— the supplement of paper PMC9112550, “Optimization of the antimicrobial peptide Bac7 by deep mutational scanning” (BMC Biology, 2022)
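Note: peptides expressed intracellularly from a pBAD plasmid library in pooled LB shake-flask culture, induced with 0.3% L-arabinose, DNA abundance read by NGS, three biological replicates, DESeq2 with apeglm shrinkage.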
